# Assay results as given in publication PMC7447978, “The ASC-1 Complex Disassembles Collided Ribosomes” (Molecular Cell, 2020).
# B1: ASCC2 with a C-terminal FLAG tag (natural protein, human, UniProt Q9H1I8 1-757, looked up)
# chain: MPALPLDQLQITHKDPKTGKLRTSPALHPEQKADRYFVLYKPPPKDNIPALVEEYLERATFVANDLDWLLALPHDKFWCQVIFDETLQKCLDSYLRYVPRKFDEGVASAPEVVDMQKRLHRSVFLTFLRMSTHKESKDHFISPSAFGEILYNNFLFDIPKILDLCVLFGKGNSPLLQKMIGNIFTQQPSYYSDLDETLPTILQVFSNILQHCGLQGDGANTTPQKLEERGRLTPSDMPLLELKDIVLYLCDTCTTLWAFLDIFPLACQTFQKHDFCYRLASFYEAAIPEMESAIKKRRLEDSKLLGDLWQRLSHSRKKLMEIFHIILNQICLLPILESSCDNIQGFIEEFLQIFSSLLQEKRFLRDYDALFPVAEDISLLQQASSVLDETRTAYILQAVESAWEGVDRRKATDAKDPSVIEEPNGEPNGVTVTAEAVSQASSHPENSEEEECMGAAAAVGPAMCGVELDSLISQVKDLLPDLGEGFILACLEYYHYDPEQVINNILEERLAPTLSQLDRNLDREMKPDPTPLLTSRHNVFQNDEFDVFSRDSVDLSRVHKGKSTRKEENTRSLLNDKRAVAAQRQRYEQYSVVVEEVPLQPGESLPYHSVYYEDEYDDTYDGNQVGANDADSDDELISRRPFTIPQVLRTKVPREGQEEDDDDEEDDADEEAPKPDHFVQDPAVLREKAEARRMAFLAKKGYRHDSSTAVAGSPRGHGQSRETTQERRKKEANKATRANHNRRTMADRKRSKGMIPS
# notes: ASCC2, human, subunit of the ASC-1 complex (ASCC); Cloned with primers from the start codon to the last codons before the FLAG tag and stop; Plasmid pUCDM-ASCC2-FLAG-TRIP4; also called ASCC2-FLAG; source: Sf21 insect cells, baculovirus, co-expressed with the other ASCC subunits; purified (NiNTA, anti-FLAG M2, heparin Sepharose); not shown: FLAG, C-terminal, kept
# B2: ASC-1 (also known as TRIP4), untagged (natural protein, human, UniProt Q15650 1-581, looked up)
# chain: MAVAGAVSGEPLVHWCTQQLRKTFGLDVSEEIIQYVLSIESAEEIREYVTDLLQGNEGKKGQFIEELITKWQKNDQELISDPLQQCFKKDEILDGQKSGDHLKRGRKKGRNRQEVPAFTEPDTTAEVKTPFDLAKAQENSNSVKKKTKFVNLYTREGQDRLAVLLPGRHPCDCLGQKHKLINNCLICGRIVCEQEGSGPCLFCGTLVCTHEEQDILQRDSNKSQKLLKKLMSGVENSGKVDISTKDLLPHQELRIKSGLEKAIKHKDKLLEFDRTSIRRTQVIDDESDYFASDSNQWLSKLERETLQKREEELRELRHASRLSKKVTIDFAGRKILEEENSLAEYHSRLDETIQAIANGTLNQPLTKLDRSSEEPLGVLVNPNMYQSPPQWVDHTGAASQKKAFRSSGFGLEFNSFQHQLRIQDQEFQEGFDGGWCLSVHQPWASLLVRGIKRVEGRSWYTPHRGRLWIAATAKKPSPQEVSELQATYRLLRGKDVEFPNDYPSGCLLGCVDLIDCLSQKQFKEQFPDISQESDSPFVFICKNPQEMVVKFPIKGNPKIWKLDSKIHQGAKKGLMKQNKAV
# notes: ASC-1 (TRIP4), human, subunit of the ASC-1 complex (ASCC); Untagged, cloned with primers from the start codon to the stop codon; Plasmid pUCDM-ASCC2-FLAG-TRIP4; source: Sf21 insect cells, baculovirus, co-expressed with the other ASCC subunits; purified (NiNTA, anti-FLAG M2, heparin Sepharose)
# Experiments:
# [1] = biological target: T1, ASCC1 with a C-terminal 8-histidine tag (human, UniProt Q8N9N2-2 1-357); experiment: tandem affinity co-purification (NiNTA, anti-FLAG M2, heparin Sepharose); four subunits co-expressed in Sf21 insect cells; lysate bound to NiNTA through ASCC1-8His (washed at 300 mM NaCl), the eluate bound to anti-FLAG M2 resin through ASCC2-FLAG and eluted with FLAG peptide, then heparin Sepharose; elution fractions shown on a gel; 4°C, 20 mM Tris-HCl 8.0, 10% glycerol; settings: partners not purified
# T1 construct: ASCC1, human, subunit of the ASC-1 complex (ASCC); Plasmid pFL-ASCC1-8His-ASCC3, fused by Cre with pUCDM-ASCC2-FLAG-TRIP4; The isoform is inferred from the printed reverse primer; also called ASCC1-8His; source: Sf21 insect cells, baculovirus, co-expressed with the other ASCC subunits; purified (NiNTA, anti-FLAG M2, heparin Sepharose); not shown: His8, C-terminal, kept
# T1 sequence (looked up): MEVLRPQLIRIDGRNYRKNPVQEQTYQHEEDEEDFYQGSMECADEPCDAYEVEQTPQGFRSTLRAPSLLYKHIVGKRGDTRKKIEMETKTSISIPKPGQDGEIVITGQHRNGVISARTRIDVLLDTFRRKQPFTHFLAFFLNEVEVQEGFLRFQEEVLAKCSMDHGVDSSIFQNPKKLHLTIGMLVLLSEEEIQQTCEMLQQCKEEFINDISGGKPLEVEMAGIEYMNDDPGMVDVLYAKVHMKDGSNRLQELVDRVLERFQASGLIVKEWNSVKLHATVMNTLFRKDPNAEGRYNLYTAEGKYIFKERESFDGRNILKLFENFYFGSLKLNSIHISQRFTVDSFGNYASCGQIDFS
# [2] = biological target: B1; experiment: as above; settings: partners not purified
Binder,stoichiometry N [1],stoichiometry N [2]
B1,~1,
B2,~1,~1
